Measured values reported in article PMC12749359, “Chromosome compartment assembly is essential for subtelomeric gene silencing in trypanosomes” (Nature Communications, 2025).

Tests used:
[1] = target: T1, repressor-activator protein 1, His-tagged recombinant (T. brucei, UniProt Q387L4 1-855); experiment: SPR
T1 chain: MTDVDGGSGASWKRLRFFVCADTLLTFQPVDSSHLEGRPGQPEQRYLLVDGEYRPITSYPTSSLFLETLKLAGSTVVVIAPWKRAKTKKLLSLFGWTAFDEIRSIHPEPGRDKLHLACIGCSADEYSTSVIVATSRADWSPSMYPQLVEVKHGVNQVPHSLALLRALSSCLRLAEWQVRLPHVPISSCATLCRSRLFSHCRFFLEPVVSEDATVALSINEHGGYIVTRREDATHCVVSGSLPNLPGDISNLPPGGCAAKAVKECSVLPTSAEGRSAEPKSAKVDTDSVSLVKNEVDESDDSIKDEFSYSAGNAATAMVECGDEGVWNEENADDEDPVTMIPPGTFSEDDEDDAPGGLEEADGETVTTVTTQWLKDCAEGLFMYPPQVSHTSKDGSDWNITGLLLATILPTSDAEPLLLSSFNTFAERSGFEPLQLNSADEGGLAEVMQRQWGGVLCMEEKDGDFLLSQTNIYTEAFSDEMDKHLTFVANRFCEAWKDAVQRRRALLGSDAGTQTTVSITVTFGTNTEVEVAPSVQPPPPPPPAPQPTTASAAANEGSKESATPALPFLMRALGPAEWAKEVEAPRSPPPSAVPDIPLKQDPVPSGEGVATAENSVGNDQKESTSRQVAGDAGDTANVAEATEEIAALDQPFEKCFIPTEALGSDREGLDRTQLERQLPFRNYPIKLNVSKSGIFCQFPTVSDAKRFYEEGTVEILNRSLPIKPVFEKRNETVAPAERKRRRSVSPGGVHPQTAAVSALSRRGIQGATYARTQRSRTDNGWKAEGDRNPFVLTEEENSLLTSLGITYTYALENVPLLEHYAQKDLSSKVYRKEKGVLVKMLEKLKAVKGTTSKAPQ

[2] = target: T1, repressor-activator protein 1, …; experiment: SPR
[3] = target: T2, repressor-activator protein 1, His-tagged recombinant (T. brucei, UniProt Q387L4 1-855); experiment: SPR; RAP1-His immobilised on NTA sensor (Nicoya OpenSPR-XT), blocked with 0.5% BSA; PIP5Pase-V5 added at 0.0008, 0.004, 0.008, 0.016 nM; 20 mM HEPES, 150 mM NaCl, 10 mM KCl, 10 mM MgCl2, 10 mM CaCl2, 0.2% NP-40; three replicates; settings: both partners purified
T2 construct: RAP1 of Trypanosoma brucei, recombinant; also called RAP1-His; his-tagged RAP1; source: recombinantly produced in E. coli
T2 sequence (looked up): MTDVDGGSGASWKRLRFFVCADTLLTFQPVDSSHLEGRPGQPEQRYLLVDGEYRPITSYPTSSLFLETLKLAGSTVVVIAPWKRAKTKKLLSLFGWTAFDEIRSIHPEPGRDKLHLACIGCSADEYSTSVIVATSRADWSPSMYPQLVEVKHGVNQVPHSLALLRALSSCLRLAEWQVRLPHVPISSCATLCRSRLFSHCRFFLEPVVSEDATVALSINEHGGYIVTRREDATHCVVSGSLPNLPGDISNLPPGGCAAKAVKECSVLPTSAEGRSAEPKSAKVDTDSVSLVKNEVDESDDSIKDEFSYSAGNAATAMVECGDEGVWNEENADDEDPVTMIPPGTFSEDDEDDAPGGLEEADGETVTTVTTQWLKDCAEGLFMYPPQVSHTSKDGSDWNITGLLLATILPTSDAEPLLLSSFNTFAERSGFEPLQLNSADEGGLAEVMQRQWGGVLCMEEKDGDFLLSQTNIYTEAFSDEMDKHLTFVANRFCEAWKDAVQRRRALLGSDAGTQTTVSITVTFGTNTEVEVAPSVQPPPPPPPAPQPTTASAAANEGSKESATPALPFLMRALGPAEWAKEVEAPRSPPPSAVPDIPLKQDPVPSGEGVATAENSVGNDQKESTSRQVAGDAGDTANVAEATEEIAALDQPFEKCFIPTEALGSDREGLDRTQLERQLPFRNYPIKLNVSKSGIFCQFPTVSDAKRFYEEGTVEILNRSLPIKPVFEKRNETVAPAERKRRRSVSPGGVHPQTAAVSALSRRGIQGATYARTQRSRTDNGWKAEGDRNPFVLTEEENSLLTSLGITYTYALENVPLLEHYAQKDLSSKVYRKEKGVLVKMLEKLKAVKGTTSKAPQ

B1: phosphatidylinositol phosphate 5-phosphatase, V5-tagged (enzyme, T. brucei, UniProt Q385E2 1-564, looked up)
chain: MRSLLEGITSTLRSAQQHQTGWDPRNATSTGVPTTAQEAFSGGVPAVAQRDLSHVEGPVSSKGGAPMDCITGYSRFSTHSPPDFPFRMLMITQNVGAIGDTAAGAKEGGEEHRRECEKQAGNDELSSDAQKDVREFLSELRLLIFEYSRREYTAHIRVSNTGDDDPSHPSAADIGGQGPPPLIDVIVVHFQEIGGKSFHTEFNNYFANALQELLPEAGWTSGLLMRANDDEDQFTAVGSVVYLSHRMCPISSILSFHHRTFVCVGDDPVTYGSSPTILFHGGKFSGAGESRKGYLLISLRLGTVVVNFLNVHLYNDKKSKEAAAASPSPYALQRQEALLETLAECAAFISPDDPLFIFGDFNTRLDVHNMLQYLKEVENLDVKVSDGDVRAPDSFWELFENPQHMGVIRPYDVEVQRLLDVVAQQSGMELAEFAVRFPPTYLCQSPRDSEEATFQIDTPVHLVNDGEDKRESGTSDRISVVRVLERLSSIPHHPYGRRRVPAWCDRVLWNPPALELMTGRRTSQSVAGSSATAHGGTGVGALRRYVYRSVALRHTDHAAVTLFF
notes: PIP5Pase of Trypanosoma brucei, endogenous allele tagged at the C-terminus (pMOTag3V5) in Lister 427 single-marker cells; also called PIP5Pase; PIP5Pase-V5; source: T. brucei bloodstream forms, endogenously tagged allele, in lysate of DSS cross-linked cells (XLMS, IP); isolated from T. brucei (SPR); not shown: 3xV5 (42 amino acids), C-terminal, kept
With B1 the koff [1] was 0.41 s⁻¹, the Kd [2] was 270 nM and the Kd [3] was 2.7 nM.
